Reference: publication PMC5356539, “Neuropilin-1 is a receptor for extracellular miRNA and AGO2/miRNA complexes and mediates the internalization of miRNAs that modulate cell function” (Oncotarget, 2016)

Molecular target: T1, Human recombinant AGO2, full-length protein (human, UniProt Q9UKV8 1-859)
T1 construct: human AGO2 (argonaute 2), full-length recombinant protein; also called full-length AGO2; source: bought: Biorbyt
Test: ELISA; plate coated with NRP1-Fc; full-length AGO2 pre-mixed or not with an equimolar amount of miR-20a (1 h, 37°C, Ca/Mg-HBSS) and serially diluted; bound AGO2 detected with anti-pan AGO2 antibody, anti-mouse IgG-HRP and TMB (OD450 minus non-specific binding)
Conditions: both partners purified

T1 sequence (Q9UKV8 whole entry): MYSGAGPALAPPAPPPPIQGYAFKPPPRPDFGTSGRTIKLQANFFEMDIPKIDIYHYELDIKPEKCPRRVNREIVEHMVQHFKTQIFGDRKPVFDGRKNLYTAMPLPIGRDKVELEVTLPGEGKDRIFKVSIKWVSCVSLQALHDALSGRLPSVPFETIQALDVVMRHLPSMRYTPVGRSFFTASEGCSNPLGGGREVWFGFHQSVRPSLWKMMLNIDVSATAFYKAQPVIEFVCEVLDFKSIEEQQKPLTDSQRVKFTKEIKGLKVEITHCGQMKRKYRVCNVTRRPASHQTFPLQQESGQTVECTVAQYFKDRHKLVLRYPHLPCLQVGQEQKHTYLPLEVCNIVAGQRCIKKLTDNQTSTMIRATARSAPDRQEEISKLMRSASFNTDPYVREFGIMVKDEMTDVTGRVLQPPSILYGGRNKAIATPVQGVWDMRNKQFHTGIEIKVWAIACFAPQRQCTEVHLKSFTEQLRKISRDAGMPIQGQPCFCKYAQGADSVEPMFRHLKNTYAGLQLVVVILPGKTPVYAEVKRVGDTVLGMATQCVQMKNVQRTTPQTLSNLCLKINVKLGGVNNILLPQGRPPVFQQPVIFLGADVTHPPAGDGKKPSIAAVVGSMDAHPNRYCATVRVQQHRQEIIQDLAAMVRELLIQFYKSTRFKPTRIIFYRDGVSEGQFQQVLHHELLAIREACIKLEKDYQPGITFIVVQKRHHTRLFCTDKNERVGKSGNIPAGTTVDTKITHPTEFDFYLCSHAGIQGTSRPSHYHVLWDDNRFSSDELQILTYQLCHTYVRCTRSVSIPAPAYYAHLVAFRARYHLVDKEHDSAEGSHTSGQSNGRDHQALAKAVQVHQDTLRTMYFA

binding result: binds
B1: Recombinant full-length rat neuropilin-1/Fc chimera (Fc fusion, UniProt Q9QWJ9 22-855, looked up)
chain: FRSDKCGGTIKIENPGYLTSPGYPHSYHPSEKCEWLIQAPEPYQRIMINFNPHFDLEDRDCKYDYVEVIDGENEGGRLWGKFCGKIAPSPVVSSGPFLFIKFVSDYETHGAGFSIRYEIFKRGPECSQNYTAPTGVIKSPGFPEKYPNSLECTYIIFAPKMSEIILEFESFDLEQDSNPPGGVFCRYDRLEIWDGFPEVGPHIGRYCGQKTPGRIRSSSGILSMVFYTDSAIAKEGFSANYSVLQSSISEDFKCMEALGMESGEIHSDQITASSQYGTNWSVERSRLNYPENGWTPGEDSYREWIQVDLGLLRFVTAVGTQGAISKETKKKYYVKTYRVDISSNGEDWITLKEGNKAIIFQGNTNPTDVVFGVFPKPLITRFVRIKPASWETGISMRFEVYGCKITDYPCSGMLGMVSGLISDSQITASNQGDRNWMPENIRLVTSRTGWALPPSPHPYINEWLQVDLGDEKIVRGVIIQGGKHRENKVFMRKFKIAYSNNGSDWKMIMDDSKRKAKSFEGNNNYDTPELRAFTPLSTRFIRIYPERATHSGLGLRMELLGCEVEVPTAGPTTPNGNPVDECDDDQANCHSGTGDDFQLTGGTTVLATEKPTIIDSTIQSEFPTYGFNCEFGWGSHKTFCHWEHDSHAQLRWRVLTSKTGPIQDHTGDGNFIYSQADENQKGKVARLVSPVVYSQSSAHCMTFWYHMSGSHVGTLRVKLHYQKPEEYDQLVWMVVGHQGDHWKEGRVLLHKSLKLYQVIFEGEIGKGNLGGIAVDDISINNHIPQEDCAKPTDLDKKNTEIKIDETGSTPGYEEGKGDKNISRKPGNVLKTLDP
notes: rat neuropilin-1, unmodified extracellular domain; transmembrane and cytosolic domains replaced with a C-terminal portion of human IgG-Fc; also called NRP1-Fc; NRP1; source: bought: R&D Systems; not shown: Fc (human IgG), C-terminal, kept
